This note sets out measurements from patent US20130244255A1, “ANTIBODIES DIRECTED TO GPNMB AND USES THEREOF” (priority 2006, published 2013).

Assay [1] concerns the target T1, GPNMB (Homo sapiens, UniProt Q14956).
T1 construct: we cloned the human CG56972 extracellular domain (ECD; aa 23-480); made in house; host or cells: HEK 293 cells
T1 sequence (Q14956 23-492): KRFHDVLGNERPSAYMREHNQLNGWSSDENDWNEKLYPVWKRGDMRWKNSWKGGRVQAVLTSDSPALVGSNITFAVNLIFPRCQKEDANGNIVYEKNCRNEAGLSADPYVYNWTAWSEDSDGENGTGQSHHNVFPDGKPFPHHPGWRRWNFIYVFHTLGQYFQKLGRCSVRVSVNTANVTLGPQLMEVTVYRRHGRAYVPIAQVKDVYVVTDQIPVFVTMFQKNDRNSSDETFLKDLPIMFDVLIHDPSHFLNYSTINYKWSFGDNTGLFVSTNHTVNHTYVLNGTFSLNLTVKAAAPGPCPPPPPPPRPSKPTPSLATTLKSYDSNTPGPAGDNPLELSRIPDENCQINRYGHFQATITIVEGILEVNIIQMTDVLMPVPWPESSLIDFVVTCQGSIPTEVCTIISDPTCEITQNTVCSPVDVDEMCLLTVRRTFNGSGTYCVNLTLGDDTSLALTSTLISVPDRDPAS
Briefly: BiaCore 2000 analysis of hybridoma supernatants binding to GPNMB. As to conditions: mAb captured on protein A; GPNMB at 880 nM; 1:1 kinetic model. On the procedure:
Certain Hybridoma cell supernatants (29) were analyzed for binding to GPNMB by BiaCore® 2000 biosensor equipped with a research-grade CM5 sensor chip. A 1:25 dilution of cell supernatant was passed over a protein A surface for 5 min followed by washing the surface for 10 mins. Subsequently, GPNMB was injected for 90 sec. over the surface at a concentration of 880 nM followed by dissociation. Double-referenced binding data were obtained by subtracting the signal from a control flow cell and subtracting the baseline drift of a buffer injected just prior to the antigen injection. GPNMB binding data for each mAb was normalized for the amount of mAb captured on each surface. Normalized, drift corrected responses were also measured. The sensorgrams were fit to a simple 1:1 kinetic model.
(In general: SPR reads the build-up and loss of mass on a sensor chip optically.)

Assay [2] has as its target T1, GPNMB. Kind of assay: ELISA of hybridoma supernatants for binding to GPNMB. On the procedure: After 14 days of culture, hybridoma supernatants were screened for GPNMB specific monoclonal antibodies. In the Primary screen, the ELISA plates (Fisher, Cat. No. 12-565-136) were coated with 50 μL/well of GPNMB (1 μg/mL) in Coating Buffer (0.1 M Carbonate Buffer, pH 9.6, NaHCO3 8.4 g/L), then incubated at 4° C. overnight. After incubation, the plates were washed with Washing Buffer (0.05% Tween 20 in PBS) three times. 200 μL/well Blocking Buffer (0.5% BSA, 0.1% Tween 20, 0.01% Thimerosal in 1×PBS) were added and the plates were incubated at room temperature for 1 h. After incubation, the plates were washed with Washing Buffer three times. Aliquots (50 μL/well) of hybridoma supernatants and positive and negative controls were added, and the plates were incubated at room temperature for 2 h. The positive control used throughout was serum from the relevant GPNMB immunized XenoMouse® mouse and the negative control was serum from the KLH-immunized relevant strain of XenoMouse® mouse. After incubation, the plates were washed three times with Washing Buffer. 100 μL/well of detection antibody goat anti-huIgGfc-HRP (Caltag, Cat. No. H10507, using concentration was 1:2000 dilution) was added and the plates were incubated at room temperature for 1 hour. After incubation, the plates were washed three times with Washing Buffer. 100 μl/well of TMB (BioFX Lab. Cat. No. TMSK-0100-01) was added, and the plates were allowed to develop for about 10 minutes (until negative control wells barely started to show color). 50 μl/well stop solution (TMB Stop Solution (BioFX Lab. Cat. No. STPR-0100-01) was then added and the plates were read on an ELISA plate reader at a wavelength of 450 nm.
Hybridoma supernatants were screened for binding to GPNMB by ELISA as described above in Example 2.
(In an ELISA, binding on a coated surface is turned into a signal by an enzyme label.)

Assay [3] deals with T2, cell membrane-bound GPNMB protein (Homo sapiens, UniProt Q14956).
T2 construct: endogenous in cells; host or cells: UACC-62 and a panel of melanoma lines (A5)
T2 sequence (Q14956 23-572): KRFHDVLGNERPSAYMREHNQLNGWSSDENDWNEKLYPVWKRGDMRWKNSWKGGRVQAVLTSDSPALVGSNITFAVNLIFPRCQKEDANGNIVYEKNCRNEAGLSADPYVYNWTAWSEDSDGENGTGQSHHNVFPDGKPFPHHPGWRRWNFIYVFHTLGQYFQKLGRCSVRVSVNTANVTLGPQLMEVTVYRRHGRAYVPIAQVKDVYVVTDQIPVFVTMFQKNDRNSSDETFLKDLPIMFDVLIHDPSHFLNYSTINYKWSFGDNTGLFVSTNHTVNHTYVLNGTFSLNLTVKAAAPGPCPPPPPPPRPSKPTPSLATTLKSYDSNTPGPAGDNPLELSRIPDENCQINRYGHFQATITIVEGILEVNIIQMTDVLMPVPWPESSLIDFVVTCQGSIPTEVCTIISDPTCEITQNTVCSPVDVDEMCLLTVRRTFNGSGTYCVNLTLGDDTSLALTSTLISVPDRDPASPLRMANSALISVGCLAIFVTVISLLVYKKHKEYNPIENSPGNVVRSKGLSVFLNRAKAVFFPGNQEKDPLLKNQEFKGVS
Kind of assay: FACS analysis of anti-GPNMB antibody binding to melanoma cell lines. As to conditions: primary antibody 1 μg/mL. In general terms: Flow cytometry measures light scatter and fluorescence of single cells or particles in a stream.

Assay [4] addresses T1, GPNMB. Kind of assay: Binning of antibodies (Luminex competitive binding). As to conditions: three bins of six anti-GPNMB antibodies. As for the experimental part: Certain antibodies, described herein were binned in accordance with the protocol described in U.S. Patent Application Publication No. 20030157730. M×hIgG conjugated beads are prepared for coupling to primary antibody. The volume of supernatant needed is calculated using the following formula: (n+10)×50 μL (where n=total number of samples on plate). Where the concentration is known, 0.5 μg/mL is used. Bead stock is gently vortexed, then diluted in supernatant to a concentration of 2500 of each bead per well or 0.5×10^5/mL and incubated on a shaker in the dark at RT overnight, or 2 hours if at a known concentration of 0.5 μg/mL. Following aspiration, 50 μL of each bead is added to each well of filter plate, then washed once by adding 100 μL/well wash buffer and aspirating. Antigen and controls are added to filter plate 50 μL/well then covered and allowed to incubate in the dark for 1 hour on shaker. Following a wash step, a secondary unknown antibody is added at 50 μL/well using the same dilution (or concentration if known) as is used for the primary antibody. The plates are then incubated in the dark for 2 hours at RT on shaker followed by a wash step. Next, 50 μL/well biotinylated m×hIgG diluted 1:500 is added and allowed to incubate in the dark for 1 hour on shaker at RT. […] Following a wash step, each well is resuspended in 80 μL blocking buffer and read using Luminex. […]

For assay [5], the target named is T3, GPNMB (Homo sapiens, UniProt Q14956).
T3 construct: Tissue sections (5 μm) were cut from formalin fixed and paraffin embedded tissue samples; tissue IMPATH, Los Angeles, Calif; host or cells: normal and tumor human tissue microarrays (melanoma, lung and other carcinomas, skin)
T3 sequence (Q14956 23-572): T2 sequence (Q14956 23-572)
Briefly: GPNMB immunohistochemistry (IHC) on human tissue microarrays. In kind it is binding. As to conditions: normal and tumor human tissue microarrays (lung, ovarian, renal, esophagus, head & neck carcinomas, squamous cell carcinoma, melanomas, normal skin). As for the experimental part:
Anti-GPNMB monoclonal antibodies were evaluated for reactivity with frozen and fixed tissue specimens. Tissue sections (5 μm) were cut from formalin fixed and paraffin embedded tissue samples and were rehydrated through incubations in xylene and a graded ethanol series terminating in PBS. Endogenous peroxidase activity was quenched in a 3% solution of hydrogen peroxide in methanol
Tissue sections were blocked in blocking buffer (5% BSA (Sigma), 1% goat serum (Jackson Immunolabs, West Grove, Pa.) in PBS) for 1 hour. Primary and secondary antibodies were precomplexed in 5% BSA and 1% goat serum in PBS for 1 hour at 37° C. at a molar ratio of approximately 10:1 of anti-GPNMB or control IgG to secondary biotinylated goat anti-human IgG (Jackson Immunolabs). Complexes were blocked with a 1:2000 dilution of human serum and incubated again for 1 hour at 37° C. Tissue sections were incubated with anti-GPNMB antibody or isotype control antibody complexes diluted in blocking buffer for 1 hour. Sections were washed in 3 changes of PBS for 5 to 10 minutes each and incubated with a 1:200 dilution of streptavidin conjugated horseradish peroxidase (Jackson Immunolabs) in blocking buffer for 30 minutes and then washed as before. Antibody was detected using DAB reagent (Vector labs). […]

[6] abbreviates: TK10 Cells (GPNMB negative control).

B1: 1.2.2: human anti-GPNMB antibody; VH SEQ ID NO: 38, VL SEQ ID NO: 47 (antibody, listed as Homo sapiens, V domains shown)
VH: ITLKESGPTLVKPTQTLTLTCTFSGFSLSAGGVGVGWIRQPPGKALEWLALIYWNDDKRYSPSLRSRLTITKDTSKNQVVLTITNMDPVDTATYYCAHSHYDYDWGSYFDYWGQGTLVTVSSA
VL: DIVMTQTPLSLPVTPGEPASISCRSSQSLLDSDDGNTYLDWYLQKPGQSPQLLIYTLSYRASGVPDRFSGSGSGTDFTLNISRVEAEDVGVYYCMQRIEFPITFGQGTRLEIKR
For the molecule B1, the “ka” value in the assay with GPNMB [1] came to 9257 M⁻¹ s⁻¹. Besides, the “kd” value in the assay with GPNMB [1] was 0.00089 s⁻¹. For the same molecule, the “Avg OD” value with GPNMB [2] (antibody at 12.3 ng/mL) turned out to be 0.049; in the assay with GPNMB [2] (antibody at 37 ng/mL) it was 0.094; with GPNMB [2] (antibody at 111 ng/mL), 0.199; with GPNMB [2] (antibody at 333 ng/mL), 0.356; in the assay with GPNMB [2] (antibody at 1 μg/mL) it was 0.499; with GPNMB [2] (antibody at 3 μg/mL), 0.763. For the same molecule, the results for the “Geo Mean Ratio of anti-GPNMB Staining (relative to pK16)” value in assay [3] (setting [6]) and in assay [3] (UACC-62 Cells) were “L. 0.98” and “K. 1.24”, respectively.

B2: 1.7.1: human anti-GPNMB antibody; VH SEQ ID NO: 56, VL SEQ ID NO: 65 (antibody, listed as Homo sapiens, V domains shown)
VH: QVQLQESGPGLVKPSQTLSLTCTVSGGSISSANYYWTWIRQHPGKGLEWIGYIYYSGSTYCNPSLKSRVIISVDTSKNQFSLKLSSVTAADTAVYYCARGYNWNYFDYWGQGTLVTVSSA
VL: DIVMTQSPATLSVSPGERATLSCRASQSVSSNLAWYQERPGQAPRLLIYGASTRATGIPARFSGSGSGTEFTLTISSLQSEDFAVYYCQQYNKWPPWTFGQGTKVEIER
B2: in the assay with GPNMB [1], the “ka” value came out at 11842 M⁻¹ s⁻¹ and the “kd” value was found to be 0.00144 s⁻¹.

B3: 2.22.1: human anti-GPNMB antibody; VH SEQ ID NO: 164, VL SEQ ID NO: 173 (antibody, listed as Homo sapiens, V domains shown)
VH: QVQLEQSGPGLVKPSQNLSLTCTVSGGSISSGGYFWSWIRQHPGKGLEWIGYIYYSGNTYYNPSLKSRVTISVDTSKNQFSLKLSSVTAADTAVYYCARDYYYDTSGFSYRYDWYYGMDVWGQGTTVTVSSA
VL: DIQLTQSPSSLSASVGDRVTITCRASQGIRNDLGWYQQKPGKAPKRLIYAASSLQNGVPSRFSGSGSGTEFTLTISSLQPEDFATYYCLQHNTYPAFGQGTKVEIKR
As to B3, the bin entry with GPNMB [4] is given as “Bin 1”. In addition, the entries for the “Geo Mean Ratio of anti-GPNMB Staining (relative to pK16)” value in assay [3] (setting [6]) and in assay [3] (UACC-62 Cells) were “I. 1.10” and “H. 4.46”, respectively. In addition, the IHC staining entry with GPNMB [5] was “Positive staining”.

B4: 1.10.2: human anti-GPNMB antibody; VH SEQ ID NO: 2, VL SEQ ID NO: 11 (antibody, listed as Homo sapiens, V domains shown)
VH: QVQLQESGPGLVKPSETLSLTCTVSGDSISNYYWSWIRQPPGKGLEWIGYFYYSGSTNYNPSLKSRVTISVDTSKNQFSLKLSSVTAADTAVYYCARDRGWADYWGQGTLVTVSSA
VL: EIVLTQSPGTLSLSPGERATLSCRTSQSISSSYLAWYQQKPGQVPRLLIYGASSRATGIPDRFSGSGSGTDFTLTISRLEPEDFAVYYCQQYGSSITFGQGTRLEIKR
With B4, in the assay with GPNMB [1], the “ka” value was determined as 3955 M⁻¹ s⁻¹ and the “kd” value was determined as 0.000466 s⁻¹.
